This note sets out measurements from publication PMC5405867 (Nature structural & molecular biology, 2017).

As usually defined, the Kd is the constant that tells how readily two partners part at equilibrium. Low values mean tighter binding, high ones weaker binding.

For experiment [1], the target named is T1, human USP18 (residues 16-372), tag removed (human, UniProt Q9UMW8 16-372).
T1 sequence (looked up): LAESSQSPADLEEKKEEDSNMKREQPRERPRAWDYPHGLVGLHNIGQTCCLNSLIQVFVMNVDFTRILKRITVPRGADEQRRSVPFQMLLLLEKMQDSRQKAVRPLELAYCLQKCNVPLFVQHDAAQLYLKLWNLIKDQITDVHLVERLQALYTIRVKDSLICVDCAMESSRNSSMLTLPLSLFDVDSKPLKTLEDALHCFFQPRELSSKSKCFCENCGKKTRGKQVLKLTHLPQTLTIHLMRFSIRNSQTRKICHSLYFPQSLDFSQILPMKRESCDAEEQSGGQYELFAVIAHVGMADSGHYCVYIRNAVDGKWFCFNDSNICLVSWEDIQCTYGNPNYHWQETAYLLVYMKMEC
As to the kind of experiment: covalent adduct formation with an active-site probe.

Experiment [2] concerns the target T2, murine USP18^IBB-2-USP7, His6-tagged (mouse, UniProt Q9WTV6 1-368, residues 256-263 (S-A-R-N-S-R-T-E) replaced by the corresponding residues …).
T2 sequence (looked up): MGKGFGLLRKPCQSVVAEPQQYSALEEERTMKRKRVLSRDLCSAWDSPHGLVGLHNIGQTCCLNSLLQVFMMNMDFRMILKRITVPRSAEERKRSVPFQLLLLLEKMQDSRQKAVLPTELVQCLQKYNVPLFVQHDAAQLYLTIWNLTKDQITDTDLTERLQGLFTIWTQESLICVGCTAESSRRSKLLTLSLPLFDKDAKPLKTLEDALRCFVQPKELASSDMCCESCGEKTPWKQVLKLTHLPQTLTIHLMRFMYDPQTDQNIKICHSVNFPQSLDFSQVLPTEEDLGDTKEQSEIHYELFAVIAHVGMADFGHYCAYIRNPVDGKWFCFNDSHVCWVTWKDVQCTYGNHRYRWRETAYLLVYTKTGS
The experiment is described as follows: cell-based or functional assay.

The target of experiment [3] is T3, murine USP18 catalytic core (residues 46-368), His6-tagged (mouse, UniProt Q9WTV6 46-368).
T3 sequence (looked up): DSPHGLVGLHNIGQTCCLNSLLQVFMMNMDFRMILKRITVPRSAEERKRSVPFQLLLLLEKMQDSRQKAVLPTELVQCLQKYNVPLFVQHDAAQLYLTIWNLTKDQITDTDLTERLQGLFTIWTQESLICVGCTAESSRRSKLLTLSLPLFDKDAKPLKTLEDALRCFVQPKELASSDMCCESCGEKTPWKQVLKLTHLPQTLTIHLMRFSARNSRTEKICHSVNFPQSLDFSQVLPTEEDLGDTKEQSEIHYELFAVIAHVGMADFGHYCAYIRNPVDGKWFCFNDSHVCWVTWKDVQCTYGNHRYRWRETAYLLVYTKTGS
As to the kind of experiment: SPR. (In general: SPR reads the build-up and loss of mass on a sensor chip optically.)

B1: mouse ISG15-PA (full-length ISG15 propargylamide probe, residues 1-154, C76S) (natural protein, UniProt Q64339 1-154, looked up)
chain: MAWDLKVKMLGGNDFLVSVTNSMTVSELKKQIAQKIGVPAFQQRLAHQTAVLQDGLTLSSLGLGPSSTVMLVVQNSSEPLSILVRNERGHSNIYEVFLTQTVDTLKKKVSQREQVHEDQFWLSFEGRPMEDKELLGEYGLKPQCTVIKHLRLRG
modifications: C-terminal propargylamide (PA)
For the molecule B1, in experiment [1], the binding result is “binds”.

B2: mouse ISG15 (residues 1-155, C76S) (natural protein, UniProt Q64339 1-155, looked up)
chain: MAWDLKVKMLGGNDFLVSVTNSMTVSELKKQIAQKIGVPAFQQRLAHQTAVLQDGLTLSSLGLGPSSTVMLVVQNSSEPLSILVRNERGHSNIYEVFLTQTVDTLKKKVSQREQVHEDQFWLSFEGRPMEDKELLGEYGLKPQCTVIKHLRLRGG
As to B2, the “catalytic activity towards ISG15-FP, percent of wild type” value in experiment [2] is 65 % of wt activity. Moreover, in experiment [3], the Kd amounted to 1.49 ± 0.03 µM.

B3: mouse ISG15-W121R (C76S) (natural protein, UniProt Q64339 1-155, looked up)
chain: MAWDLKVKMLGGNDFLVSVTNSMTVSELKKQIAQKIGVPAFQQRLAHQTAVLQDGLTLSSLGLGPSSTVMLVVQNSSEPLSILVRNERGHSNIYEVFLTQTVDTLKKKVSQREQVHEDQFRLSFEGRPMEDKELLGEYGLKPQCTVIKHLRLRGG
Consider B3, for which the “stoichiometry N” value in experiment [3] was 0.4 ISG15 per immobilized USP18.
